Patent publication US20200368361A1 (Regeneron, published 2020)

T1: human MSR1 extracellular domain expressed with a N-terminal nonahistidine tag (His9-hMSR1); R&D Systems, Cat … (human, UniProt P21757 77-451)
T1 construct: extracellular domain; Bought protein; also called His-hMSR1
T1 sequence: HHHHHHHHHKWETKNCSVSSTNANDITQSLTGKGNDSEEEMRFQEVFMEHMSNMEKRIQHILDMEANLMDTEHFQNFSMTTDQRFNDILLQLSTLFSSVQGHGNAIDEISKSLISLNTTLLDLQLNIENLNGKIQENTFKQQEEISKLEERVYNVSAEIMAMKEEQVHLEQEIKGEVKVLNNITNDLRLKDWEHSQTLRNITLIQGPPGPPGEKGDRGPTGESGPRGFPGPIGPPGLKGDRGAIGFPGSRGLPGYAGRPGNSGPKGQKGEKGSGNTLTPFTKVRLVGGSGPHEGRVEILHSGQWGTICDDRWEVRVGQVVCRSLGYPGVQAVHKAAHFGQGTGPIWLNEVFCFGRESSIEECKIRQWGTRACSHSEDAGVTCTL

T2: monkey MSR1 extracellular domain expressed with a N-terminal hexahistidine-myc-myc tag (HMM-mfMSR1) (monkey (Macaca fascicularis))
T2 chain: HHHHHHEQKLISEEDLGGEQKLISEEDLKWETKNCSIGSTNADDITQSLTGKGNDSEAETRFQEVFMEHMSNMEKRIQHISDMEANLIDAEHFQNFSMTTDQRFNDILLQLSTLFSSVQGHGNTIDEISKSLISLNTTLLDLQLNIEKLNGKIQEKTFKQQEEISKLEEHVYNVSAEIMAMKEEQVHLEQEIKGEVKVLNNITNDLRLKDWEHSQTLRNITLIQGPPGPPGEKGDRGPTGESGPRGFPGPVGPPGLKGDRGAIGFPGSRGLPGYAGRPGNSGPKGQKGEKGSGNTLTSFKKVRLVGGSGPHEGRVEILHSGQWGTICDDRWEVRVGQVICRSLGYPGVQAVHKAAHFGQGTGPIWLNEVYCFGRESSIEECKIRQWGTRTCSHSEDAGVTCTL

T3: full length human MSR1 with a C-terminal Myc tag on HEK293.Myc.hMSR1 cells (human, UniProt P21757 1-451)
T3 construct: whole, on cells
T3 sequence (looked up): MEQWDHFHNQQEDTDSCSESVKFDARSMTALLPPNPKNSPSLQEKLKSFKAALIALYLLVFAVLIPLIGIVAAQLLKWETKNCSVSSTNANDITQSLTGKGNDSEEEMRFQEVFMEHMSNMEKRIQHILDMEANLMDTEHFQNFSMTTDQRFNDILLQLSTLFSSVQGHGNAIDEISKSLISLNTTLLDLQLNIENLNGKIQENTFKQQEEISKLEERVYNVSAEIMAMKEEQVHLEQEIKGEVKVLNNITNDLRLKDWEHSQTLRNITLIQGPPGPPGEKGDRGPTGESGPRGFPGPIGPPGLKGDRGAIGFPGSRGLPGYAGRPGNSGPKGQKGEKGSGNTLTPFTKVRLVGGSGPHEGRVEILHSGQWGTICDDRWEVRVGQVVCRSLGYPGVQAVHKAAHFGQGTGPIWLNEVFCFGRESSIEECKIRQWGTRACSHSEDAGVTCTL

T4: full length monkey MSR1 on HEK293.mfMSR1 cells (Macaca fascicularis, UniProt A0A2K5UWE2 1-451)
T4 construct: whole, on cells
T4 sequence: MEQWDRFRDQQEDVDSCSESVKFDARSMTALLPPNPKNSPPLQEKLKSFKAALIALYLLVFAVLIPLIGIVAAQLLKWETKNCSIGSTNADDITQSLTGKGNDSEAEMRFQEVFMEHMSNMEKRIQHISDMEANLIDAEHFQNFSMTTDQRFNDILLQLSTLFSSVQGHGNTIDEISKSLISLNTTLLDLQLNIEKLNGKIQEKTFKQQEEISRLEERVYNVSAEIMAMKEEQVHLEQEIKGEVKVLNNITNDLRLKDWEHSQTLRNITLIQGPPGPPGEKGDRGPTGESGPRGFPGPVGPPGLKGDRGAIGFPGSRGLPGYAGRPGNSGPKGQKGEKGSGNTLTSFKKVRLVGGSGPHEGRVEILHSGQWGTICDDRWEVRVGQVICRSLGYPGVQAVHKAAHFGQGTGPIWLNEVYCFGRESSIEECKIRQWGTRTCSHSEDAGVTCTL

T5: mouse MSR1 on RAW264.7 cells (mouse, UniProt P30204 1-458)
T5 construct: whole, on cells
T5 sequence (looked up): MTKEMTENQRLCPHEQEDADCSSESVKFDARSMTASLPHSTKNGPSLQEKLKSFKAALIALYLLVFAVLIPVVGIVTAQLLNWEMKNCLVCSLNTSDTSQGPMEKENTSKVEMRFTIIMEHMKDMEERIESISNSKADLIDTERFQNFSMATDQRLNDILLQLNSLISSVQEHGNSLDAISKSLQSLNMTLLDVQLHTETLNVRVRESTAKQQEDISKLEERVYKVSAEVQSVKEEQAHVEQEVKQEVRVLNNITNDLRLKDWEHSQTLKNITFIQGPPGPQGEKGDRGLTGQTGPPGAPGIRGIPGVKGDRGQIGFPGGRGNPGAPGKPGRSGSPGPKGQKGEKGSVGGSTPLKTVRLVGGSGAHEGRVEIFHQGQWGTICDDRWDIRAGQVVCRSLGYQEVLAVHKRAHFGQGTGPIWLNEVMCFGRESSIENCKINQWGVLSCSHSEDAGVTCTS

T6: monkey MSR1 extracellular domain expressed with a N-terminal hexahistidine-myc-myc tag (monkey (Macaca fascicularis))
T6 construct: also called HMM-mfMSR1
T6 chain: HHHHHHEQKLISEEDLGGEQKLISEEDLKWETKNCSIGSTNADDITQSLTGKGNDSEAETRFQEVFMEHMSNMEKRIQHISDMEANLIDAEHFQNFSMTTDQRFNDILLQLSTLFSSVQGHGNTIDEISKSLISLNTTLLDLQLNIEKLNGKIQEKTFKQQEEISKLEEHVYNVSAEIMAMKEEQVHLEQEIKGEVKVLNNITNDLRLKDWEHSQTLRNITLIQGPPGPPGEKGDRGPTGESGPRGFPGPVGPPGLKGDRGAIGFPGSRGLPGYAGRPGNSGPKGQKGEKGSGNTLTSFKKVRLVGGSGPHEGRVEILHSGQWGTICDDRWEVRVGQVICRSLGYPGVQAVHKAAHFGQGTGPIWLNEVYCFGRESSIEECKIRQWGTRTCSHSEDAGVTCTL

T7: human MSR1 extracellular domain expressed with a N-terminal nonahistidine tag (human, UniProt P21757 77-451)
T7 construct: extracellular domain; Bought reagent; also called His9-hMSR1
T7 sequence: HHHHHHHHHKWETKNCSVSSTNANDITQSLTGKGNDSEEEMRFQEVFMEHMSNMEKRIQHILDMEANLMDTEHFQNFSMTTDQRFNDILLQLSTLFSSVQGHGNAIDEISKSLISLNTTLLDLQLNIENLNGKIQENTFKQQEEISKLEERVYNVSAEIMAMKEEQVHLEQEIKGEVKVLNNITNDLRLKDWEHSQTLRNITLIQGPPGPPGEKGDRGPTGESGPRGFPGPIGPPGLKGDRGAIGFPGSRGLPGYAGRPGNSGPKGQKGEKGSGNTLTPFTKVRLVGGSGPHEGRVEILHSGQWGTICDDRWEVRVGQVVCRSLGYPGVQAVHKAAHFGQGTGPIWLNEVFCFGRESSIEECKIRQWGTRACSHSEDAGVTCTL

T8: full length monkey MSR1 on HEK293.mfMSR1 cells (Macaca fascicularis, UniProt A0A2K5UWE2 1-451)
T8 construct: whole, on cells; also called mfMSR1 engineered cells
T8 sequence: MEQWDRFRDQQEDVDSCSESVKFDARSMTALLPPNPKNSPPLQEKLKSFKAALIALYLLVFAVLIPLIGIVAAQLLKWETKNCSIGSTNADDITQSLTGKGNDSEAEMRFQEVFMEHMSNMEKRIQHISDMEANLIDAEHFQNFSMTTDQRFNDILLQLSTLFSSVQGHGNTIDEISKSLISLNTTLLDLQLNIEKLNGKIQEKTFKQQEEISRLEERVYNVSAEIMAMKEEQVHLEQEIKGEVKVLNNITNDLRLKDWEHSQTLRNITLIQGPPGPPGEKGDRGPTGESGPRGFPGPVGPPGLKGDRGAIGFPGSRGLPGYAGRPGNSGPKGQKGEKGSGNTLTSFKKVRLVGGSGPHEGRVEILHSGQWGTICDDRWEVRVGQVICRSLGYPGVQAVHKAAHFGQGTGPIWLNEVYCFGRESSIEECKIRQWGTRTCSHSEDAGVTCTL


What was measured:
[1] = biological target: T1, human MSR1 extracellular domain …; test: SPR Biacore, 25C, mAb captured by anti-human Fc, MSR1 as analyte; calculated from kd fixed at 1.00E-05
Description: (§1) Binding affinities and kinetic constants of human anti-MSR1 antibodies for different MSR1 reagents were determined by real-time surface plasmon resonance (Biacore 4000). All binding studies were performed in 10 mM HEPES, 150 mM NaCl, 3 mM EDTA, and 0.05% v/v Surfactant Tween-20, pH 7.4 (HBS-ET) running buffer at 25° C. and 37° C.
(§2) The association rate (kₐ) and dissociation rate (kd) were determined by fitting the real-time binding sensorgrams to a 1:1 binding model with mass transport limitation using Scrubber 2.0 c curve-fitting software.

[2] = biological target: T2, monkey MSR1 extracellular domain …; test: as above
Description: as §1, §2

[3] = biological target: T3, full length human MSR1 with a …; test: ECL cell binding, HEK293.Myc.hMSR1
Description: (§3) All cells were washed once with 1×PBS with Ca²⁺/Mg²⁺ and counted with a Cellometer™ Auto T4 cell counter (Nexcelom Bioscience). Approximately 1.0×10⁴ cells were seeded separately onto 96-well carbon electrode plates [MULTI-ARRAY high bind plate, Meso Scale Diagnostics] and incubated for 1 hour at 37° C. Non-specific binding sites were then blocked by 2% BSA (w/v) in PBS with Ca²⁺/Mg²⁺ for 1 hour at room temperature. THP-1 cells were pre-incubated for 0.5 hours at room temperature in sample dilution buffer with: 1) 1 mg/mL Fc receptor block reagents to block Fc gamma receptors on THP-1 cell surface [whole molecule human IgG (Jackson Immunoresearch, Cat #009-000-003) for wells being tested with anti-MSR1-mFc antibodies or 2) whole molecule mIgG (Jackson Immunoresearch, Cat #015-000-003) for wells being tested with anti-MSR1-hFc antibodies. Antibody binding on HEK293.Myc.hMSR1, HEK293.mfMSR1 and HEK293 cells was tested without Fc receptor block reagents. […] Plates were then washed to remove unbound antibodies an AquaMax2000 plate washer with a cell washing head (MDS Analytical Technologies). […] Plates were washed and developed with Read Buffer (Meso Scale Diagnostics, Cat #R92TD-2) according to manufacturer's recommended procedure and luminescent signals were recorded with a SECTOR Imager 600 (Meso Scale Diagnostics). Luminescence intensity, measured in relative light units (RLU), was recorded to indicate the binding intensity of each antibody at the range of concentrations.

[4] = biological target: T4, full length monkey MSR1 on …; test: ECL cell binding, HEK293.mfMSR1
Description: as §3

[5] = biological target: T5, mouse MSR1 on RAW264.7 cells; test: flow cytometry, RAW264.7 cells, 10 ug/mL;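 further: antibodies bound to RAW264.7 cells for 30 min on ice after Fc block with mouse IgG, S/N is MFI relative to unstained cells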
Description: To block binding to Fc receptors, RAW264.7 cells were incubated for 30 minutes at 4° C. with 500 μg/mL mouse IgG (Jackson ImmunoResearch, Cat #015-000-003) diluted in staining buffer, while B16F10.9 cells remained in staining buffer. Following Fc receptor blocking, 10 μg/mL of anti-MSR1 antibodies or an isotype control antibody were added to the cells and were subsequently incubated for 30 minutes on ice. […] The signal to noise (S/N) was determined by calculating the ratio of the anti-MSR1 antibodies or the control antibodies MFI to the unstained sample MFI (Table 16).

[6] = biological target: T6, monkey MSR1 extracellular domain …; test: SPR 37C, mAb captured; no dissociation seen, kd fixed
Description: as §1, §2

[7] = biological target: T7, human MSR1 extracellular domain …; test: as above
Description: as §1, §2

[8] = biological target: T8, full length monkey MSR1 on …; test: ECL cell binding (Meso Scale), ratio to isotype control compared with parental HEK293

Row | Binder | t½ [1] [h] | t½ [2] [h] | binding signal ratio to isotype control (11 nM) [3] [fold] | binding signal ratio to isotype control (11 nM) [4] [fold] | MFI [5] | S/N [5] | Kd [6] [nM] | Kd [7] [nM] | binding result [8]
1 | H1H21234N (antibody, V domains shown, original human IgG1 Fc (no N297 mutation)) VH: QVQLQESGPGLVKPSETLSLTCTVTGGSISRNYWSWIRQPPGKGLEWIGYIYYSGSIDYNPSLKSRVTISVDTSKNQFSLKLSSMTAADTAVYYCARDRWNWKYGMDVWGQGTTVIVSS VL: EIVLTQSPGTLSLSPGERATLSCRASQTVRNNYLAWYHQKPGQAPRLLIYGASSRATGIPDRFSGSGSGTDFTLTISRLEPEDFTVYYCHQYGNSPWTFGQGTKMEIKR | 19.2 | 19.2 |  |  |  |  |  |  | 
2 | H1H21234N-N297Q (antibody, human IgG1, V domains shown, human IgG1 Fc with N297Q) VH: QVQLQESGPGLVKPSETLSLTCTVTGGSISRNYWSWIRQPPGKGLEWIGYIYYSGSIDYNPSLKSRVTISVDTSKNQFSLKLSSMTAADTAVYYCARDRWNWKYGMDVWGQGTTVIVSS VL: EIVLTQSPGTLSLSPGERATLSCRASQTVRNNYLAWYHQKPGQAPRLLIYGASSRATGIPDRFSGSGSGTDFTLTISRLEPEDFTVYYCHQYGNSPWTFGQGTKMEIKR |  |  | 43 | 35 | 7050 | 3 | ≤ 0.0133 | ≤ 0.0127 | 
3 | H1H21234N (antibody, human IgG1, V domains shown, original human IgG1 Fc) VH: QVQLQESGPGLVKPSETLSLTCTVTGGSISRNYWSWIRQPPGKGLEWIGYIYYSGSIDYNPSLKSRVTISVDTSKNQFSLKLSSMTAADTAVYYCARDRWNWKYGMDVWGQGTTVIVSS VL: EIVLTQSPGTLSLSPGERATLSCRASQTVRNNYLAWYHQKPGQAPRLLIYGASSRATGIPDRFSGSGSGTDFTLTISRLEPEDFTVYYCHQYGNSPWTFGQGTKMEIKR |  |  | 32 | 31 |  |  | ≤ 0.0138 | ≤ 0.0148 | 
4 | H1xH29273P2 (antibody, V domains shown, The H1xH prefix is not explained for the anti-MSR1 antibodies; Fc form as tested not clear) VH: QVQLVESGGGVVQSGRSLRLSCAAAGFTFSNYGMHWVRQAPGKGLEWVALMSFDGSDKYYADSVKGRFTISRDNSKNTLYLQMNSLRAEDTALYYCAKGYDFWSGYWDYWGQGTLVTVSS VL: not shown |  |  |  |  |  |  |  |  | no binding (tested: 11 nM)
